{"source": "the Human Domainome abundance scans (Beltran et al. 2025)", "parents": {"B1": {"name": "POU domain, class 2, transcription factor 3, residues 186 to 260; numbered along this chain, Q9UKI9 (parent)", "chain": "SDLEELEKFAKTFKQRRIKLGFTQGDVGLAMGKLYGNDFSQTTISRFEALNLSFKNMCKLKPLLEKWLNDAESSP"}, "B2": {"name": "Transitional endoplasmic reticulum ATPase, residues 26 to 106; numbered along this chain, P55072 (parent)", "chain": "LIVDEAINEDNSVVSLSQPKMDELQLFRGDTVLLKGKKRREAVCIVLSDDTCSDEKIRMNRVVRNNLRVRLGDVISIQPCP"}}, "note": "± gives the uncertainty stated by the source."}
{"variants_of": "B1", "experiment": "abundance fitness (aPCA) (normalised: wild type 0, dead -1); higher = more abundant; growth selection in yeast, the domain comes from the species named", "details": "Homo sapiens"}
{"variant": "S74K", "abundance fitness": "0.036 ± 0.07"}
{"variant": "S74F", "abundance fitness": "-0.08 ± 0.11"}
{"variant": "E65R", "abundance fitness": "-0.197 ± 0.036"}
{"variant": "S53Q", "abundance fitness": "-0.077 ± 0.055"}
{"variant": "L68K", "abundance fitness": "-0.809 ± 0.12"}
{"variant": "D70Y", "abundance fitness": "-0.021 ± 0.062"}
{"variant": "D70A", "abundance fitness": "-0.059 ± 0.043"}
{"variant": "D70I", "abundance fitness": "-0.02 ± 0.062"}
{"variant": "M57Q", "abundance fitness": "-0.318 ± 0.077"}
{"variant": "M57N", "abundance fitness": "-0.167 ± 0.095"}
{"variant": "N56M", "abundance fitness": "0.045 ± 0.047"}
{"variant": "N56G", "abundance fitness": "-0.05 ± 0.029"}
{"variant": "L60I", "abundance fitness": "-0.067 ± 0.059"}
{"variant": "L64W", "abundance fitness": "-0.981 ± 0.089"}
{"variant": "N51C", "abundance fitness": "-0.076 ± 0.058"}
{"variant": "A71I", "abundance fitness": "-0.074 ± 0.16"}
{"variant": "A71P", "abundance fitness": "-0.067 ± 0.067"}
{"variant": "P75F", "abundance fitness": "-0.185 ± 0.17"}
{"variant": "F47Y", "abundance fitness": "-0.222 ± 0.066"}
{"variant": "K33R", "abundance fitness": "0.129 ± 0.42"}
{"variant": "K55P", "abundance fitness": "-0.155 ± 0.06"}
{"variant": "K55C", "abundance fitness": "-0.033 ± 0.078"}
{"variant": "F54K", "abundance fitness": "0.014 ± 0.043"}
{"variant": "R46A", "abundance fitness": "0.015 ± 0.037"}
{"variant": "R46L", "abundance fitness": "-0.05 ± 0.035"}
{"variant": "R46Y", "abundance fitness": "-0.097 ± 0.096"}
{"variant": "R46G", "abundance fitness": "-0.009 ± 0.024"}
{"variant": "L52S", "abundance fitness": "-0.25 ± 0.043"}
{"variant": "E48P", "abundance fitness": "-0.994 ± 0.12"}
{"variant": "Q41Y", "abundance fitness": "-0.07 ± 0.09"}
{"variant": "K59N", "abundance fitness": "-0.026 ± 0.061"}
{"variant": "K59T", "abundance fitness": "-0.007 ± 0.043"}
{"variant": "I18V", "abundance fitness": "-0.023 ± 0.027"}
{"variant": "T12R", "abundance fitness": "-0.018 ± 0.11"}
{"variant": "N37M", "abundance fitness": "-0.025 ± 0.031"}
{"variant": "L63N", "abundance fitness": "-0.026 ± 0.065"}
{"variant": "S73C", "abundance fitness": "-0.087 ± 0.057"}
{"variant": "C58N", "abundance fitness": "-0.005 ± 0.067"}
{"variant": "L29Y", "abundance fitness": "-0.06 ± 0.041"}
{"variant": "L29P", "abundance fitness": "-0.47 ± 0.039"}
{"variant": "I44C", "abundance fitness": "-0.538 ± 0.056"}
{"variant": "W67F", "abundance fitness": "-0.004 ± 0.056"}
{"variant": "G25D", "abundance fitness": "-0.436 ± 0.28"}
{"variant": "A49F", "abundance fitness": "-0.274 ± 0.29"}
{"variant": "A49Q", "abundance fitness": "0.133 ± 0.27"}
{"variant": "A49K", "abundance fitness": "-0.315 ± 0.4"}
{"variants_of": "B2", "experiment": "abundance fitness (aPCA) (normalised: wild type 0, dead -1); higher = more abundant; growth selection in yeast, the domain comes from the species named", "details": "Homo sapiens"}
{"variant": "Q78D", "abundance fitness": "0.084 ± 0.087"}
{"variant": "Q78H", "abundance fitness": "-0.025 ± 0.12"}
{"variant": "Q78E", "abundance fitness": "-0.004 ± 0.13"}
{"variant": "Q78I", "abundance fitness": "-0.023 ± 0.12"}
{"variant": "Q78P", "abundance fitness": "-0.256 ± 0.24"}
{"variant": "Q78G", "abundance fitness": "-0.069 ± 0.048"}
{"variant": "Q78L", "abundance fitness": "-0.01 ± 0.06"}
{"variant": "Q78T", "abundance fitness": "-0.003 ± 0.077"}
{"variant": "Q78V", "abundance fitness": "0.039 ± 0.064"}
{"variant": "Q78M", "abundance fitness": "-0.089 ± 0.077"}
{"variant": "Q78R", "abundance fitness": "-0.071 ± 0.057"}
{"variant": "Q78Y", "abundance fitness": "0.024 ± 0.33"}
{"variant": "Q78N", "abundance fitness": "0.063 ± 0.48"}
{"variant": "Q78F", "abundance fitness": "-0.345 ± 0.12"}
{"variant": "Q78C", "abundance fitness": "-0.105 ± 0.089"}
{"variant": "Q78S", "abundance fitness": "-0.031 ± 0.078"}
{"variant": "I75V", "abundance fitness": "-0.039 ± 0.069"}
{"variant": "I75W", "abundance fitness": "-1.04 ± 0.37"}
{"variant": "I75F", "abundance fitness": "-0.859 ± 0.15"}
{"variant": "I75H", "abundance fitness": "-0.695 ± 0.14"}
{"variant": "I75A", "abundance fitness": "-0.246 ± 0.088"}
{"variant": "I75T", "abundance fitness": "-0.495 ± 0.14"}
{"variant": "I75Q", "abundance fitness": "-1.11 ± 0.28"}
{"variant": "I75D", "abundance fitness": "-0.863 ± 0.41"}
{"variant": "I75Y", "abundance fitness": "-0.916 ± 0.31"}
{"variant": "I75E", "abundance fitness": "-0.633 ± 0.19"}
{"variant": "I75G", "abundance fitness": "-0.944 ± 0.19"}
{"variant": "I75N", "abundance fitness": "-0.842 ± 0.31"}
{"variant": "I75L", "abundance fitness": "-0.155 ± 0.054"}
{"variant": "I75C", "abundance fitness": "-0.265 ± 0.12"}
{"variant": "I75K", "abundance fitness": "-1.05 ± 0.3"}
{"variant": "I75M", "abundance fitness": "-0.2 ± 0.11"}
{"variant": "S76T", "abundance fitness": "-0.146 ± 0.091"}
{"variant": "S76Y", "abundance fitness": "-0.107 ± 0.12"}
{"variant": "S76P", "abundance fitness": "-0.467 ± 0.16"}
{"variant": "S76F", "abundance fitness": "-0.043 ± 0.11"}
{"variant": "S76H", "abundance fitness": "0 ± 0.17"}
{"variant": "S76Q", "abundance fitness": "0.057 ± 0.11"}
{"variant": "S76W", "abundance fitness": "-0.207 ± 0.082"}
{"variant": "S76C", "abundance fitness": "-0.015 ± 0.096"}
{"variant": "S76A", "abundance fitness": "-0.036 ± 0.073"}
{"variant": "S76G", "abundance fitness": "-0.021 ± 0.043"}
{"variant": "S76R", "abundance fitness": "-0.046 ± 0.044"}
{"variant": "S76L", "abundance fitness": "-0.112 ± 0.06"}
{"variant": "S76V", "abundance fitness": "0.023 ± 0.064"}
{"variant": "S76I", "abundance fitness": "-0.173 ± 0.13"}
{"variant": "S76E", "abundance fitness": "-0.096 ± 0.088"}
{"variant": "S76M", "abundance fitness": "-0.012 ± 0.087"}
{"variant": "P79L", "abundance fitness": "-0.044 ± 0.035"}
{"variant": "P79T", "abundance fitness": "-0.11 ± 0.088"}
{"variant": "P79K", "abundance fitness": "0.113 ± 0.12"}
{"variant": "P79S", "abundance fitness": "-0.016 ± 0.069"}
{"variant": "P79W", "abundance fitness": "-0.304 ± 0.093"}
{"variant": "P79A", "abundance fitness": "0.015 ± 0.063"}
{"variant": "P79F", "abundance fitness": "-0.012 ± 0.088"}
{"variant": "P79C", "abundance fitness": "-0.099 ± 0.096"}
{"variant": "P79H", "abundance fitness": "-0.037 ± 0.11"}
{"variant": "P79D", "abundance fitness": "-0.383 ± 0.15"}
{"variant": "P79R", "abundance fitness": "-0.106 ± 0.062"}
{"variant": "P79G", "abundance fitness": "-0.083 ± 0.06"}
{"variant": "P79M", "abundance fitness": "-0.076 ± 0.11"}
{"variant": "P79E", "abundance fitness": "-0.087 ± 0.082"}
{"variant": "P79Y", "abundance fitness": "-0.208 ± 0.12"}
{"variant": "P79I", "abundance fitness": "-0.181 ± 0.14"}
{"variant": "P81H", "abundance fitness": "-0.261 ± 0.1"}
{"variant": "P81N", "abundance fitness": "0.073 ± 0.17"}
{"variant": "P81S", "abundance fitness": "-0.106 ± 0.064"}
{"variant": "P81C", "abundance fitness": "-0.262 ± 0.29"}
{"variant": "P81Y", "abundance fitness": "-0.224 ± 0.16"}
{"variant": "P81V", "abundance fitness": "-0.153 ± 0.14"}
{"variant": "P81L", "abundance fitness": "-0.405 ± 0.21"}
{"variant": "P81R", "abundance fitness": "-0.221 ± 0.14"}
{"variant": "P81A", "abundance fitness": "-0.042 ± 0.044"}
{"variant": "P81T", "abundance fitness": "-0.013 ± 0.12"}
{"variant": "P81G", "abundance fitness": "-0.451 ± 0.22"}
{"variant": "P81D", "abundance fitness": "0.058 ± 0.12"}
{"variant": "P81I", "abundance fitness": "-0.174 ± 0.15"}
{"variant": "P81F", "abundance fitness": "-0.195 ± 0.16"}
{"variant": "C80E", "abundance fitness": "-0.095 ± 0.17"}
{"variant": "C80T", "abundance fitness": "-0.038 ± 0.091"}
{"variant": "C80K", "abundance fitness": "-0.505 ± 0.49"}
{"variant": "C80W", "abundance fitness": "-0.29 ± 0.11"}
{"variant": "C80V", "abundance fitness": "-0.06 ± 0.045"}
{"variant": "C80L", "abundance fitness": "0.022 ± 0.073"}
{"variant": "C80D", "abundance fitness": "-0.064 ± 0.072"}
{"variant": "C80F", "abundance fitness": "-0.067 ± 0.054"}
{"variant": "C80I", "abundance fitness": "0.047 ± 0.079"}
{"variant": "C80N", "abundance fitness": "0.141 ± 0.089"}
{"variant": "C80H", "abundance fitness": "-0.064 ± 0.14"}
{"variant": "C80R", "abundance fitness": "-0.066 ± 0.071"}
{"variant": "C80P", "abundance fitness": "-0.048 ± 0.3"}
{"variant": "C80G", "abundance fitness": "0.056 ± 0.039"}
{"variant": "C80Y", "abundance fitness": "-0.109 ± 0.059"}
{"variant": "C80M", "abundance fitness": "0.055 ± 0.2"}
{"variant": "C80Q", "abundance fitness": "0.104 ± 0.3"}
{"variant": "V74I", "abundance fitness": "-0.115 ± 0.091"}
{"variant": "V74S", "abundance fitness": "-0.048 ± 0.064"}
{"variant": "V74M", "abundance fitness": "-0.107 ± 0.093"}
{"variant": "V74R", "abundance fitness": "0.036 ± 0.062"}
{"variant": "V74Y", "abundance fitness": "-0.052 ± 0.11"}
{"variant": "V74Q", "abundance fitness": "0.037 ± 0.095"}
{"variant": "V74L", "abundance fitness": "-0.117 ± 0.064"}
{"variant": "V74F", "abundance fitness": "0.042 ± 0.078"}
{"variant": "V74G", "abundance fitness": "-0.085 ± 0.052"}
{"variant": "V74W", "abundance fitness": "-0.087 ± 0.091"}
{"variant": "V74K", "abundance fitness": "0.008 ± 0.13"}
{"variant": "V74N", "abundance fitness": "0.034 ± 0.2"}
{"variant": "V74P", "abundance fitness": "0.009 ± 0.095"}
{"variant": "I77R", "abundance fitness": "-0.91 ± 0.12"}
{"variant": "I77E", "abundance fitness": "-0.85 ± 0.22"}
{"variant": "I77K", "abundance fitness": "-1.01 ± 0.38"}
{"variant": "I77M", "abundance fitness": "-0.097 ± 0.078"}
{"variant": "I77H", "abundance fitness": "-0.842 ± 0.47"}
{"variant": "I77G", "abundance fitness": "-0.817 ± 0.093"}
{"variant": "I77F", "abundance fitness": "-0.259 ± 0.11"}
{"variant": "I77C", "abundance fitness": "-0.074 ± 0.2"}
{"variant": "I77W", "abundance fitness": "-0.856 ± 0.27"}
{"variant": "I77T", "abundance fitness": "-0.672 ± 0.17"}
{"variant": "I77L", "abundance fitness": "0.013 ± 0.057"}
{"variant": "I77A", "abundance fitness": "-0.309 ± 0.075"}
{"variant": "I77S", "abundance fitness": "-0.914 ± 0.19"}
